Assay results taken from patent US20030091568A1, “Inhibitors for the formation of soluble human CD23” (priority 2000, published 2003).
Like-named read-outs stand apart in the source and are kept apart here. Values belong to the molecule of their own block, whether it stands above or below them.

What was measured:
[1] = target: oxidized human insulin B chain (human); test: cell-based or functional assay
[2] = target: T1, human CD23b (full length cDNA, expressed on transfected COS or CHO cells) (human) (UniProt P06734); test: cell-based or functional assay
T1 sequence (looked up): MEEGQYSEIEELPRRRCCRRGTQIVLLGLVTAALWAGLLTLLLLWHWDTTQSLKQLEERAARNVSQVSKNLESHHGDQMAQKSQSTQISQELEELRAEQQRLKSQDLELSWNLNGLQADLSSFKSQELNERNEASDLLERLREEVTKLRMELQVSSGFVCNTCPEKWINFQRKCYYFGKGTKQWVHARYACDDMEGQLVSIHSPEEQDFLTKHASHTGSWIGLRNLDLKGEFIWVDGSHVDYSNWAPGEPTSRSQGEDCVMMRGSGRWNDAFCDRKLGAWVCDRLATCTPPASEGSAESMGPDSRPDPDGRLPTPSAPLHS

[3] = target: T2, ADAM9-Fc fusion protein (Mus musculus, UniProt Q61072); test: Cleavage of oxidized insulin B chain by soluble ADAM9-Fc (MALDI-TOF); assay type: biochemical; settings: 2 mM inhibitor
T2 construct: the complete extracellular domain of ADAM9 (aa 1-698); made in house; host or cells: HEK293-EBNA1 cells (pCEP4), purified on Protein A Sepharose
T2 sequence (Q61072 206-698 limits assumed): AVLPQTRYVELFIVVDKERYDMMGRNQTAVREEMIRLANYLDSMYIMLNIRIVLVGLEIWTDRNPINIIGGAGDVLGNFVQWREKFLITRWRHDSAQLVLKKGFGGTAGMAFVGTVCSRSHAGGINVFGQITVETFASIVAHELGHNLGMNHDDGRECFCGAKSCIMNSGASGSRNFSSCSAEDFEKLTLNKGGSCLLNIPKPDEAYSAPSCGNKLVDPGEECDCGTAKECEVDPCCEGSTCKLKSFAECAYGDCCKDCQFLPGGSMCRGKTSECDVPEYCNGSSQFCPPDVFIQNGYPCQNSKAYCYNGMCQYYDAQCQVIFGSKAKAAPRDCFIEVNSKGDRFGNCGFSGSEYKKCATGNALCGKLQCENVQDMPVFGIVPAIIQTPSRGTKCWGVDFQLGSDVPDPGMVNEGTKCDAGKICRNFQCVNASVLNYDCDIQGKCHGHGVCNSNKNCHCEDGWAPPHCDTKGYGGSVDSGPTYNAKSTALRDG
Excerpt: The estimated cleavage sites (marked by an ↓), determined by mass spectrometry (MALDI-TOF), are indicated.

[4] = target: T1, human CD23b (full length cDNA, expressed on transfected COS or CHO cells) (human); test: cell-based or functional assay; remark: listed apart in the source

Chain of oxidized human insulin B chain (human) (peptide, as listed by the source): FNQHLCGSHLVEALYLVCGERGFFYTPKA

peptide cleavage (MALDI-TOF) (cleavage sites) [1]: 2
Molecule: soluble ADAM9-Fc fusion protein (ADAM9 aa 1-698 fused to human IgG1 Fc)

decrease in surface fluorescence intensity of CD23 (FACS, cotransfected COS cells, 48 h) [2]: 35 to 40%
Molecule: ADAM9ACT (truncated cytoplasmic domain), transfected into COS cells (from UniProt Q61072 30-845) (enzyme)

inhibition of cleavage of the insulin B chain [3]: completely inhibited
Molecule: c1cnc2c(c1)ccc1cccnc12 [o-phenanthroline]

amount of s-CD23 in culture supernatant (ELISA), ADAM9 expression On against Off [4]: 2 to 3 times
decrease in surface bound CD23 (flow cytometry MFI, CHO clone 3, tetracycline removed) [4]: 40 to 50%
decrease in surface fluorescence intensity of CD23 (FACS, cotransfected COS cells, 48 h) [4]: 35 to 40%
B1: ADAM9 (full length cDNA, transfected into COS-7 or CHO AA8 cells) (enzyme, murine, UniProt Q61072 30-845, looked up)
chain: GRPDLEQTVHLSSYEIITPWRLTRERREALGPSSQQISYVIQAQGKQHIIHLERNTDLLPNDFVVYTYDKEGSLLSDHPNVQSHCHYRGYVEGVQNSAVAVSACFGLRGLLHLENASFGIEPLHNSSHFEHIFYPMDGIHQEPLRCGVSNRDTEKEGTQGDEEEHPSVTQLLRRRRAVLPQTRYVELFIVVDKERYDMMGRNQTAVREEMIRLANYLDSMYIMLNIRIVLVGLEIWTDRNPINIIGGAGDVLGNFVQWREKFLITRWRHDSAQLVLKKGFGGTAGMAFVGTVCSRSHAGGINVFGQITVETFASIVAHELGHNLGMNHDDGRECFCGAKSCIMNSGASGSRNFSSCSAEDFEKLTLNKGGSCLLNIPKPDEAYSAPSCGNKLVDPGEECDCGTAKECEVDPCCEGSTCKLKSFAECAYGDCCKDCQFLPGGSMCRGKTSECDVPEYCNGSSQFCPPDVFIQNGYPCQNSKAYCYNGMCQYYDAQCQVIFGSKAKAAPRDCFIEVNSKGDRFGNCGFSGSEYKKCATGNALCGKLQCENVQDMPVFGIVPAIIQTPSRGTKCWGVDFQLGSDVPDPGMVNEGTKCDAGKICRNFQCVNASVLNYDCDIQGKCHGHGVCNSNKNCHCEDGWAPPHCDTKGYGGSVDSGPTYNAKSTALRDGLLVFFFLIVPLVAAAIFLFIKRDELRKTFRKKRSQMSDGRNQANVSRQPGDPSISRPPGGPNVSRPPGGPGVSRPPGGPGVSRPPGGPGVSRPPPGHGNRFPVPTYAAKQPAQFPSRPPPPQPKISSQGNLIPARPAPAPPLYSSLT
